Reference: the supplement of paper PMC9112550, “Optimization of the antimicrobial peptide Bac7 by deep mutational scanning” (BMC Biology, 2022)

Test system: Escherichia coli TOP10
Test: shrunken log2 fold change of peptide-encoding DNA abundance (4.5 h post-induction vs induction); higher = less antimicrobial activity (less host growth inhibition)
Settings: time post-induction: 4.5 h; library: site-saturation at positions 5, 18, 19, 20
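Further: peptides expressed intracellularly from a pBAD plasmid library in pooled LB shake-flask culture, induced with 0.3% L-arabinose, DNA abundance read by NGS, three biological replicates, DESeq2 with apeglm shrinkage.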

| Sequence | shrunken log2 fold change |
| --- | --- |
| RRIRGRPPRLPRPRPRPAPLPRP | 0.893 |
| RRIRYRPPRLPRPRPRPSRRPRP | 0.0397 |
| RRIRLRPPRLPRPRPRPPITPRP | -0.213 |
| RRIRFRPPRLPRPRPRPSTFPRP | -0.945 |
| RRIRPRPPRLPRPRPRPPMNPRP | -0.036 |
| RRIRWRPPRLPRPRPRPWHGPRP | -0.368 |
| RRIRCRPPRLPRPRPRPRTYPRP | -0.447 |
| RRIRNRPPRLPRPRPRPSGHPRP | -0.141 |
| RRIRIRPPRLPRPRPRPWVYPRP | -0.341 |
| RRIRRRPPRLPRPRPRPSKCPRP | -0.47 |
| RRIRCRPPRLPRPRPRPYIGPRP | -1.24 |
| RRIRLRPPRLPRPRPRPSRSPRP | -0.0638 |
| RRIRRRPPRLPRPRPRPLCNPRP | 0.0189 |
| RRIRMRPPRLPRPRPRPWTDPRP | -0.035 |
| RRIRGRPPRLPRPRPRPWTMPRP | 0.033 |
| RRIRHRPPRLPRPRPRPKNFPRP | -0.0655 |
| RRIRERPPRLPRPRPRPEEQPRP | 0.221 |
| RRIRYRPPRLPRPRPRPNKRPRP | -0.75 |
| RRIRSRPPRLPRPRPRPKQYPRP | -0.361 |
| RRIRDRPPRLPRPRPRPRRLPRP | 0.472 |
| RRIRWRPPRLPRPRPRPWVDPRP | -0.119 |
| RRIRPRPPRLPRPRPRPNHYPRP | -0.576 |
| RRIRNRPPRLPRPRPRPACTPRP | -0.0652 |
| RRIRHRPPRLPRPRPRPHMDPRP | -0.162 |
| RRIRPRPPRLPRPRPRPQGTPRP | 0.306 |

| Sequence | shrunken log2 fold change |
| --- | --- |
| RRIRPRPPRLPRPRPRPSPDPRP | 0.146 |
| RRIRYRPPRLPRPRPRPYTTPRP | -0.554 |
| RRIRGRPPRLPRPRPRPMVSPRP | 0.313 |
| RRIRYRPPRLPRPRPRPYIKPRP | -1.3 |
| RRIRCRPPRLPRPRPRPHTAPRP | -0.457 |
| RRIRWRPPRLPRPRPRPRCSPRP | 0.362 |
| RRIRERPPRLPRPRPRPDIYPRP | 0.137 |
| RRIRERPPRLPRPRPRPETRPRP | -0.0227 |
| RRIRVRPPRLPRPRPRPDVVPRP | -0.36 |
| RRIRERPPRLPRPRPRPFLPPRP | -0.701 |
| RRIRMRPPRLPRPRPRPETMPRP | 3.17 |
| RRIRTRPPRLPRPRPRPDSIPRP | -0.0295 |
| RRIRERPPRLPRPRPRPHDGPRP | -0.532 |
| RRIRCRPPRLPRPRPRPQFVPRP | -0.419 |
| RRIRFRPPRLPRPRPRPSWCPRP | -0.0879 |
| RRIRIRPPRLPRPRPRPWMAPRP | -0.547 |
| RRIRARPPRLPRPRPRPDQYPRP | 0.151 |
| RRIRPRPPRLPRPRPRPWAKPRP | -0.0178 |
| RRIRHRPPRLPRPRPRPWVPPRP | -0.408 |
| RRIRYRPPRLPRPRPRPLSCPRP | -0.0548 |
| RRIRSRPPRLPRPRPRPCGEPRP | 0.385 |
| RRIRWRPPRLPRPRPRPQHSPRP | -0.186 |
| RRIRSRPPRLPRPRPRPDEQPRP | 0.202 |
| RRIRVRPPRLPRPRPRPPTDPRP | 0.116 |
| RRIRKRPPRLPRPRPRPCDGPRP | 0.00408 |

| Sequence | shrunken log2 fold change |
| --- | --- |
| RRIRMRPPRLPRPRPRPQNQPRP | -0.183 |
| RRIRYRPPRLPRPRPRPCFHPRP | -1.42 |
| RRIRFRPPRLPRPRPRPKIQPRP | -0.179 |
| RRIRSRPPRLPRPRPRPMKAPRP | -0.00133 |
| RRIRNRPPRLPRPRPRPAEGPRP | 0.0922 |
| RRIRWRPPRLPRPRPRPLHYPRP | -0.369 |
| RRIRERPPRLPRPRPRPYVNPRP | 0.0121 |
| RRIRSRPPRLPRPRPRPVKYPRP | -0.177 |
| RRIRDRPPRLPRPRPRPGYHPRP | -0.071 |
| RRIRQRPPRLPRPRPRPGMPPRP | -0.0642 |
| RRIRCRPPRLPRPRPRPTIGPRP | -0.0746 |
| RRIRIRPPRLPRPRPRPKMYPRP | -0.25 |
| RRIRKRPPRLPRPRPRPVQRPRP | 0.0869 |
| RRIRPRPPRLPRPRPRPCGMPRP | 0.0189 |
| RRIRWRPPRLPRPRPRPLYMPRP | -0.684 |
| RRIRGRPPRLPRPRPRPVCWPRP | 1.16 |
| RRIRARPPRLPRPRPRPGAGPRP | 0.767 |
| RRIRFRPPRLPRPRPRPYKDPRP | -0.213 |
| RRIRHRPPRLPRPRPRPYNNPRP | -0.819 |
| RRIRKRPPRLPRPRPRPTGMPRP | 0.128 |
| RRIRWRPPRLPRPRPRPKIDPRP | 0.0747 |
| RRIRWRPPRLPRPRPRPEAWPRP | 1.02 |
| RRIRFRPPRLPRPRPRPNVKPRP | -0.574 |
| RRIRPRPPRLPRPRPRPWEQPRP | 0.201 |
| RRIRVRPPRLPRPRPRPNIYPRP | -0.25 |

| Sequence | shrunken log2 fold change |
| --- | --- |
| RRIRHRPPRLPRPRPRPVDLPRP | -0.314 |
| RRIRCRPPRLPRPRPRPVKYPRP | -0.596 |
| RRIRERPPRLPRPRPRPIDLPRP | -0.219 |
| RRIRSRPPRLPRPRPRPANPPRP | 0.11 |
| RRIRCRPPRLPRPRPRPNRFPRP | 2.96 |
| RRIRERPPRLPRPRPRPLRRPRP | 0.303 |
| RRIRIRPPRLPRPRPRPAAKPRP | 0.463 |
| RRIRARPPRLPRPRPRPIHWPRP | 0.0725 |
| RRIRERPPRLPRPRPRPCNKPRP | -0.858 |
| RRIRARPPRLPRPRPRPCERPRP | -0.00198 |
| RRIRVRPPRLPRPRPRPYKDPRP | -0.933 |
| RRIRSRPPRLPRPRPRPVKGPRP | -0.0577 |
| RRIRLRPPRLPRPRPRPCRCPRP | 0.00318 |
| RRIRSRPPRLPRPRPRPWMAPRP | 0.0303 |
| RRIRNRPPRLPRPRPRPSAFPRP | -0.249 |
| RRIRMRPPRLPRPRPRPYRTPRP | 0.0313 |
| RRIRERPPRLPRPRPRPYWPPRP | -0.249 |
| RRIRKRPPRLPRPRPRPNMFPRP | -0.155 |
| RRIRKRPPRLPRPRPRPKCRPRP | 0.175 |
| RRIRARPPRLPRPRPRPIFQPRP | 0.116 |
| RRIRARPPRLPRPRPRPEHFPRP | 0.126 |
| RRIRPRPPRLPRPRPRPVTTPRP | -0.0302 |
| RRIRWRPPRLPRPRPRPVQSPRP | 0.0186 |
| RRIRRRPPRLPRPRPRPCRGPRP | 0.17 |
| RRIRERPPRLPRPRPRPALPPRP | 0.439 |

| Sequence | shrunken log2 fold change |
| --- | --- |
| RRIRERPPRLPRPRPRPIPCPRP | -0.341 |
| RRIRSRPPRLPRPRPRPHTIPRP | -0.87 |
| RRIRYRPPRLPRPRPRPEKQPRP | -0.000925 |
| RRIRLRPPRLPRPRPRPCRGPRP | 0.157 |
| RRIRHRPPRLPRPRPRPYSNPRP | -0.392 |
| RRIRTRPPRLPRPRPRPKFEPRP | 0.0721 |
| RRIRKRPPRLPRPRPRPDRFPRP | -0.0614 |
| RRIRRRPPRLPRPRPRPFTMPRP | -0.198 |
| RRIRSRPPRLPRPRPRPEPVPRP | 1.44 |
| RRIRYRPPRLPRPRPRPRYDPRP | -0.21 |
| RRIRERPPRLPRPRPRPSMYPRP | -0.516 |
| RRIRFRPPRLPRPRPRPGDNPRP | -0.0236 |
| RRIRPRPPRLPRPRPRPNSVPRP | -0.174 |
| RRIRSRPPRLPRPRPRPDPKPRP | -0.00687 |
| RRIRTRPPRLPRPRPRPMCKPRP | -0.0839 |
| RRIRNRPPRLPRPRPRPQEMPRP | -0.218 |
| RRIRYRPPRLPRPRPRPNDMPRP | -1.16 |
| RRIRNRPPRLPRPRPRPMNIPRP | -0.24 |
| RRIRIRPPRLPRPRPRPQHFPRP | -0.109 |
| RRIRARPPRLPRPRPRPSEMPRP | 0.29 |
| RRIRNRPPRLPRPRPRPLSGPRP | 0.0992 |
| RRIRQRPPRLPRPRPRPTWGPRP | 0.168 |
| RRIRPRPPRLPRPRPRPYSSPRP | -0.282 |
| RRIRARPPRLPRPRPRPLFMPRP | -0.166 |
| RRIRNRPPRLPRPRPRPNPHPRP | -0.116 |
